PMC9239104, “Scaffolding Protein GspB/OutB Facilitates Assembly of the Dickeya dadantii Type 2 Secretion System by Anchoring the Outer Membrane Secretin Pore to the Inner Membrane and to the Peptidoglycan Cell Wall” (mBio, 2022)

B1: OutB HR domain (residues P112 to K220), purified (domain or fragment)
chain: PAKLVTGWQTAKPGELPYIAFSAHVYTSAPDKRSVTLNGERYREGDSPYQGLVIEQIEQDMVIFSFNGEPFILDSLQDWPGGKPGDDAAQGNEQEPTSKPEQTVRTTKK
notes: OutB (GspB) of Dickeya dadantii, conserved periplasmic domain, residues 112 to 220; uniformly 15N-labelled where it was the observed protein; the NMR methods speak of residues 112 to 193, the results and legends of 112 to 220; also called OutB^112–220; 15N-labeled OutB HR domain; source: E. coli BL21(DE3), purified (glutathione Sepharose, on-column PreScission cleavage, Superdex S200); not shown: …

What was measured:
[1] = biological target: OutD N0 domain (residues 1 to 85 of signal peptide-less OutD), purified (Dickeya dadantii) (UniProt Q01565); test: NMR titration; competition: 15N OutB HR 40 μM, unlabelled OutD N0 60 μM, unlabelled OutC HR 120, 240 and 360 μM; HSQC chemical shifts
[2] = biological target: T1, OutD N0-N1-N2 domains (residues 1 to 258 of signal peptide-less OutD), purified (Dickeya dadantii, UniProt Q01565 28-285); test: NMR titration; 1H-15N HSQC of a 15N-labelled domain alone or with the unlabelled partner; each protein 200 μM; 15°C, 20 mM Tris-HCl pH 7.0, 10% D2O; settings: both partners purified
T1 construct: secretin OutD (GspD) of Dickeya dadantii, N0, N1 and N2 domains, residues A1 to V258; numbers count on: the mature protein
T1 sequence: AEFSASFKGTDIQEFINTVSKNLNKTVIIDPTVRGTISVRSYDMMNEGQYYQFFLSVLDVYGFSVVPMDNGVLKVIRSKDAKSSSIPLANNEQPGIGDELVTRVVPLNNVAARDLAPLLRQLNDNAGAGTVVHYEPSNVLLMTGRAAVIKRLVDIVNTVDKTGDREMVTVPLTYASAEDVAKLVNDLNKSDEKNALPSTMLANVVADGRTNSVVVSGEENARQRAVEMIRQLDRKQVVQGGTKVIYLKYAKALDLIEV

[3] = biological target: B1; test: NMR titration; competition: 15N OutB HR 40 μM, unlabelled OutD N0 60 μM, unlabelled OutC HR 120, 240 and 360 μM; HSQC chemical shifts; settings: both partners purified

OutC HR domain (residues A78 to S158) (domain or fragment)
Kd [1]: 1000 µM

B1
binding result [2]: binds

B2: OutD N0 domain (residues 1 to 85 of signal peptide-less OutD), purified (domain or fragment)
chain: AEFSASFKGTDIQEFINTVSKNLNKTVIIDPTVRGTISVRSYDMMNEGQYYQFFLSVLDVYGFSVVPMDNGVLKVIRSKDAKSSS
notes: secretin OutD (GspD) of Dickeya dadantii, N0 domain, residues A1 to S85; numbers count on: the mature protein; 15N-labelled in the reciprocal experiment
Kd [3]: ~10 µM
